Changes are numbered by the printed parent chain.
B1: ACTN21: activin A variant peptide, SEQ ID 22 (protein)
chain: GLECDGKVNYCCKKQWFVSFKDIGWNDWIIAPSGYHANKCSGKCPSHIAGTSGSSLSFHSTVINHYRMRGHSPFANMGSCCIPTKLRPMSMLYYDDGQNIIKKDIQNMIVEECGCS
B2: ACTN22: activin A variant peptide, SEQ ID 23 (protein)
chain: B1 chain with Y10L, W16D, K39R, S41D, K43L, N76L, S79A
B3: ACTN32: activin A variant peptide, SEQ ID 33 (protein)
chain: B1 chain with Y10L, W16D, K39R, S41G, A75S
B4: ACTN28: activin A variant peptide, SEQ ID 29 (protein)
chain: B1 chain with W16L, K39H
B5: ACTN23: activin A variant peptide, SEQ ID 24 (protein)
chain: B1 chain with W16D, S41D, A75S, N76D

Key:
Type in all cases: cell-based
[1] = test system: H1 or H9 human embryonic stem cells; experiment: Activin A bioassay: differentiation of human embryonic stem cells to definitive endoderm, cell number and SOX17 intensity by high content analysis (96-well, four days); details: for Sox 17 Intensity % of control: control = R&D Sys Activin A 100 ng/ml on same plate;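 as to Cell Number average: Raw total cell count per well from high content imaging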;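 as to Sox 17 Intensity average: total fluorescence of the cell multiplied by cell area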
In short: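 Read-out was cell count and integrated SOX17 immunofluorescence by high-content imaging, with each well divided by the mean of the 100 ng/ml activin A control. Over the four-day culture, test samples were given in DMEM:F12 with 0.5% FCS plus 20 ng/ml Wnt3a for the first two days and in 2% FCS alone for the last two. Cells were H1 or H9 hESC clusters grown on Matrigel.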

[2] = test system: Human Embryonic Stem Cells (H1 hESC line); experiment: FACS analysis of CXCR4 at conclusion of first step of step-wise differentiation (Example 12); details: 100 ng/ml peptide, end of first step (three days), FIG. 23A, 23B
Protocol: (§1) Preparation of Cells for Assay: Stock Cultures of Human Embryonic Stem Cells (H1 hESC line) were maintained in an undifferentiated, pluripotent state on growth factor-reduced MATRIGEL™-coated dishes in MEF conditioned medium supplemented with bFGF (PeproTech; Cat #100-18B) with passage on average every, four days. Passage was performed by exposing cell cultures to a solution of 1 mg/ml collagenase (Invitrogen, Cat #17104-019) for five to seven minutes at 37° C. followed by rinsing the monolayer with MEF conditioned medium and gentle scraping to recover cell clusters. Clusters were centrifuged at low speed to collect a cell pellet and remove residual collagenase. Cell clusters were split at a 1:3 or 1:4 ratio for routine maintenance culture or a 1:1 ratio for immediate assay. All human ES cell lines were maintained at passage numbers less than 50 and routinely evaluated for normal karyotypic phenotype and for absence of mycoplasma contamination.
(§2) Cell clusters were evenly resuspended in MEF conditioned medium supplemented with 8 ng/ml bFGF and seeded onto growth factor-reduced MATRIGEL™-coated 24-well, black wall culture plates (Arctic White; Cat #AWLS-303012) in volumes of 0.5 ml/well. Daily feeding was conducted by aspirating spent culture medium from each well and replacing with an equal volume of fresh medium. Plates were maintained at 37° C., 5% CO2 throughout the duration of assay.
(§3) Assay: The assay was initiated by aspirating culture medium from each well and adding back an aliquot (0.5 ml) of test medium. Test conditions for the first step of differentiation were conducted over a three-day period, feeding daily by aspirating and replacing the medium from each well with fresh test medium. Concentrated supernatants of the ACTN peptides were evaluated for protein concentration using a DuoSet ELISA kit for human activin A (R&D Systems; Cat #DY338), as previously described in Example 11. On the first day of assay, ACTN peptides were diluted to a final concentration of 100 ng/ml in RPMI 1640 medium (Invitrogen; Cat #: 22400) with 2% Albumin Bovine Fraction V, Fatty Acid Free (FAF BSA) (MP Biomedicals, Inc; Cat #152401), 8 ng/ml bFGF, and 20 ng/ml Wnt3a (R&D Systems; Cat #1324-WN/CF) and then added to the assay wells. On the second and third day of assay, ACTN peptides were diluted into RPMI 1640 medium supplemented with 2% fatty acid free BSA and 8 ng/ml bFGF, without any Wnt3a and then added to the assay wells. A positive control sample included a commercial source of activin A (PeproTech; Cat #12 0-14) diluted in culture medium with growth factors as indicated. At the conclusion of three days culture, cells from some wells were harvested for analysis by flow cytometry to evaluate levels of CXCR4, a marker of definitive endoderm formation. […]

[3] = test system: Human Embryonic Stem Cells (H1 hESC line); experiment: High content analysis of cell number and SOX17 expression at end of first step of differentiation (Example 12); details: 100 ng/ml peptide, FIG. 23C-F
Protocol: as §1, §2, §3

[4] = supernatant concentration 1x, assay dilution 1:20
[5] = supernatant concentration 10x, assay dilution 1:20
[6] = supernatant concentration 10x, assay dilution 1:40

Molecule	SOX17 expression ([1]; Wnt3a omitted from treatment on days 1 and 2)	Optimal activin A effects for induction of SOX17 expression (concentration range) ([1]; commercial activin A (Peprotech), 20 ng/ml Wnt3a on days 1 and 2, four days) [ng/mL]	EC50 for induction of SOX17 expression ([1]; commercial activin A (Peprotech), two-fold dilution curve, 20 ng/ml Wnt3a on days 1 and 2, four days) [µg/mL]	CXCR4 expression (FACS) [2]	cell number and SOX17 expression (high content analysis) [3]	Cell Number average [1, 4]	Sox 17 Intensity average [1, 4]	Sox 17 Intensity % of control [1, 4] [%]	Cell Number average [1, 5]	Sox 17 Intensity average [1, 5]	Sox 17 Intensity % of control [1, 5] [%]	Cell Number average [1, 6]	Sox 17 Intensity average [1, 6]	Sox 17 Intensity % of control [1, 6] [%]
activin A [reference compound]	failed to produce measurable SOX17 expression	100 to 200	0.03 to 0.05	equivalent and robust CXCR4 expression	equivalent results	–	–	–	–	–	–	–	–	–
B1	–	–	–	–	–	8072	6.33E+03	0.0	11102	4.89E+05	1.7	10458	8.77E+04	0.3
B2	–	–	–	–	–	9909	1.32E+05	0.4	8745	3.69E+05	1.3	9568	3.76E+05	1.3
B3	–	–	–	–	–	16166	9.11E+04	0.3	14330	3.97E+04	0.1	11619	3.43E+05	1.2
B4	–	–	–	–	–	7411	3.70E+06	12.6	12587	4.87E+07	165.7	10116	3.57E+07	121.5
B5	–	–	–	–	–	6831	2.89E+04	0.1	10482	1.63E+05	0.6	8184	1.47E+05	0.5

From patent US20110091971A1, “Differentiation of Pluripotent Stem Cells” (priority 2008, published 2011)
